Test: yeast display, Sf9 membrane polyspecificity reagent, FACS + sequencing; frameworks hold sequencing errors
Procedure, shortened: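 Synthetic nanobody libraries on Saccharomyces cerevisiae BJ5465 were galactose-induced for 36–48 hours, stained 1 hour at 4 °C with 10% biotinylated, detergent-solubilized Sf9 membrane reagent and enriched on streptavidin microbeads. FACS then separated cells into low and high (top ~1%) gates by anti-HA (expression) and streptavidin (reagent binding) fluorescence. Genes were colony-PCR amplified, MiSeq 2 × 250 sequenced and CDR-length filtered. A clone's polyreactivity label is that of its gate of origin.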

| Sequence | polyreactivity (PSR sort gate) |
| --- | --- |
| QVQLVESGGGLVQAGGSLRLSCAASGSIYGYTMGWNRQAPWKERELVAAINRRADRTYYADSVKGRFTISRDNAKNTVYLQMNSLKPEDTAVYYCNKGGWYTLGYWGQGTQVTVSS | high polyreactivity |
| QVQLVESGGGLVQAGGSLRLSCAASGFTSYGYAMGWYRQAPGKERELVAAISRSGGSTYYADSVKGRFTISRDNAKNTVYLQMNSLKPEDTAVYYCAVAVGREYVYRYYYWGQGTQVTVSS | high polyreactivity |
| QVQLVESGGGLVQAGGSLRLSCAASGGTFIANAMGWYRQAPGKERELVATINANADTTYYADSVKGRFTISRDNAKNTVYLQMNSLKPEDTAVYYCAAAQRYPIKYYYWGQGTQVTVSS | low polyreactivity |
| QVQLVESGGGLVQAGGSLRLSCAGSGSTFKKYPMGWYREATGKEREFVAAISRGGRTYYADSVKGRFTSSRDNAKTTVYLQMNSLNPEDTAVYYCAADTFAYQEVYYWGQGTQVTVSS | high polyreactivity |
| QVQLVESGGGLVQAGGSLRLSCAASGSIFRGNTMGWYRQAPGKERELLAAINWTGGSTYYADSVKGRFTISRDNAKYTVYLQMNSLKPEDTAVYYCAARKFTSYYWGRSYGYWGQGTQVTVSS | high polyreactivity |
| QVQLVESGGGLVQAGGSLRLSCAASGSTFRTYAMGWYRQAPGKERELVASIDSTGSTNYADSVKGRFTISRDNAKNTVYLQMNSLKPEDTAVYYCAAETYSYPPFYAYDYWGQGTQVTVSS | low polyreactivity |
| QVQLVESGGGLVQAGGSLRLSCAASGRTSVYNAMGWYRQAPGKERELVAAITYGGRTYYADSVKGRFTISRDNAKNTVYLQMNSLKPEDTAVYYCAAPFHPAYVGYDYWGQGTQVTVSS | low polyreactivity |
| QVQLVESGGGLVQAGGILRLSCAASGRIKPRNAMGWYRQAPGKERELVAAISWDGGSTYYADSVKGRFTISRDNAKNTVYLQINSLKPVDTAVYYCNVYVSAGEEDEYWGQGTQVTVSS | low polyreactivity |
| QVQLVESGGGLVQAGGSLRLSSAASGLIFYDNMGWSRQAPGKERELDAAISSSGGSTSDADSVKGRFTISRDNAKNTVYLQMNSLKPEDTAVYYCAADSYPDYLGFVGFDYWGQGTQVTVSS | low polyreactivity |
| QVQLVESGGGLVQAGGSLRLSCAASGSIFFPNAMGWYRQAPGKERELVAAITSTSTNYADSVKGRCTISRDNAKNTVYLQMNSLKPEDTAVYYCAADGEFRRAWYEGDYWGQGTQVTVSS | low polyreactivity |
| QVQLVESGGGLVQAGGSLRLSCAASGRIFPFYAMGWYRQAPGKERELVAAISTRGGSTYYADSVKGRFTISRDNAKNTVYLQMNSLKPADTAVYYCAADVQAVGYDYWGQGTQVTVSS | high polyreactivity |
| QVQLVESGGGLVQAGGSLRLSCAASGSIFSIYAMEWYRQAPGKERELVAAITWGGGSTYYADSVKGRFTISRDNAKNTVYLQMNSLKPEDTAVYYCAADSLTWYGTYYYWGQGTQVTVSS | high polyreactivity |
| QDQLVESGGGLVQAGGRLRLSCAASGLMFYYYAMGWYIQAPGKEREFVAAISRSGGITRYADSVKGRFTISRDNAKNTVYLQMNRLKPEDTAVYYCAAAVGSVRYDYWGQGTQVTVSS | high polyreactivity |
| QVQLVESGGGLVQAGGSLRLSCAASGRTYVRDTMGWYRQAPGQERQLVAAITWSGGSTYYADSVKGRFTISRDNAKNTVYLQMNSLKPEDTAVYYCARRYSPHTSVSYYSWGQGNQVTVSS | high polyreactivity |
| QVQLVESGGGLVQAGGSLRLSCAASGRTFYRYAMGWYRQAPGKEREFVAAISNGGSNTRYADSVKGRFTISRDNAKNTVYLQMNSLKPEDTAVYYCAARAYQHYNWGQGTQVTVSS | high polyreactivity |
| QVQIVESGGGLVQAAGSLRLSCAASGSTLAPYAMGWYRQAPGKERELVASINWGGTTTYYADSVKGRFTNSRDNAKNKVYLQMNSLKPEDTAVYYCAALGLSWGRSGYYYEYYYWGQGTQVTVSS | high polyreactivity |

| Sequence | polyreactivity (PSR sort gate) |
| --- | --- |
| QVQLVESGGGLVQAGGSLRLSCAASGFTFDENAMGWYRQAPGINYSGASTYYADSVKGRFTISRDNATNTVYLQMNSLKPEDTAVYYCAAEVVAQMNYWGQGTQVTVSS | low polyreactivity |
| QVQLVESGGGLVQAGGSLRLSCAASGNIFRGYTMGWSRQAPGKERELVAAISYSGGSTYADSVKGRFTISRDNAKNTVYLQMNSLKPEDTAVYYCNTDTSVDVRFDYWGQGTQVTVSS | low polyreactivity |
| QVQLVESGGGLVQAGGSLRLSCAASGRTLSRYTMGWYRQAPGKERELVAAISTSGSTYYADSVKGRFTISRDNAKNTVYFQMNSLKPEDTAVYYCNAVRRFLQYATGYDYWRQGTQVTVSS | high polyreactivity |
| QVQLVESGGGLVQAGGSLRLSCAASGYIFVRYAMGWYRQAPGKERELVAAINSSRGRTYYADSVKGRFTISRDNAKNTVSLQMNSLKPEDTAVYYCGAYGYYRSGYRALEGYWGQGTQVTVSS | high polyreactivity |
| QVQLVESGGGLVQAGGSLRLSCAASGRTFIPYAMGWYRQAPGKERQLVATIRRGGSTYYADSVKGRFTISRDNAKNTVYLQMNSLKPEDTAEYYCAATRYSFGPRRVDYWGQGTQVTVSS | high polyreactivity |
| QVQLVESGGGIVQAGGSLRLSCAASGSTFESNAMGSYRQAPGKERELVAAISRGGNTYYADSVKGRFTISRDNAKNTVYLQMNSLKPEDTAVYYCNVDRGNPVQPSEYWGQGTQVTVSS | low polyreactivity |
| QVQLVESGGGLVQARGSLRLSSSASGSIFKYYAMGRYRHAPGKESELGAAISYSGGTTYYADSVKGRFTISRDNAKNTVYLQMNSLKPEDTAVYDCNARYPNFVVRGYAPYDYWGQGSQVTVSS | low polyreactivity |
| QVHLVESGGGLVQAGGSLRISCAASGRTFQVYAMGRYRQAPGKERELVAAISLTGGGTYYADSVKGRFTISRDYANNTVYLQMNSLKPEDTAVYYCAVRRRTHLGFLYEYWGQGTQVTVSS | high polyreactivity |
| QVQLVESGVGLVQAVGSLRISCAACGSIFGRYGMGWYRQAPGKERELVAAITSGTRTNYADSVKGRFTISRDNAKNTVYLQMNSLKPEDTAVYYCNALRLRGIYEYGYWGLGTQVTVSS | low polyreactivity |
| QVQLVESGGGLVQAGGSLRLSCAASGSTFSANAMGWYRQAPGKERELVAAITYRGGNTYYADSVKGRFTISRDNAKNTVYLQLNSLKPEDTAVYYCNRDLRVRYRRLKYGYWGQGTQVTVSS | low polyreactivity |
| QVQLVESGGGLVQAGGSLRLSCAASGSIFYGYAMGWYRQAPGKERELVASISKRGGSTYYADSVKGRFTISRDNAKNTVYLQMNSLKPEDTAVYYCAAEGVVYREYNYWGQGTQVTVSS | high polyreactivity |
| QVQLVESGGGLVQAGGSLRLTCAASGIIFRLNAMGWYRQAPGKERELVAAIRRRGGSTYYADSVKGRFTISRDYAKNTVYLQMNSLKPADTAVYYCAKEPDGSDFGYWGQGTQVTESS | low polyreactivity |
| QVQLVESGGGLVQAGGSLRLSCAASGLTLSYNAMGWYRQAPGKERELVAAIRSGGSTNYADSVKGRFTISRDNAKNTVYLQMNSLKPEDTAVYYCAARFRYLPYRYGRYQSGYEYWGLGTQVTVSS | high polyreactivity |
| QVQLVESGGGLVQAGGSLRLSCAASGRIFPAYVMGWYRQAPGKERQLVATIDNGGGTYFADSVKGRFTISRDNAKNTVYLQMNRLKPVETAVYYCARDRHVRWGLNMDYWGQGTQVTVSS | low polyreactivity |
| QVQLVESGGGLVQAGGSLRLSCAASGYTQPANGMGLYRQAPGKERELVAAISFIAGSTYYADSVKGRFTISRDNAKNTVYLQMNSLKPEDTAVYYCATQFPPSTIYDYWGQGTQVSVSS | low polyreactivity |
| QVQLVETGGGLVQAGGSLRVSCAASGSTFSGYAMGWYRQAPGKERELVAAITRSGGRTYYADSVKGRFTISRDNAKNTVYLQMNSLLPEDTAVYYCATDRAYYHSYGRFGYWGQGTHVTVSS | high polyreactivity |
